These are literature values, as cited in paper PMC5116920.

One may read the Kd as a measure of binding affinity in units of concentration.

This series deals with Histone H4 (UniProt P62805).

Regarding TAF1 BD (from UniProt P21675), the Kd was 100 µM.
